One block for each molecule: values may come before it.
Columns and labels:
[1] = test system: S11 (S11a) (DNA, aptamer) GGGAGACAAGAATAAACGCTCAAGGCAACATACTGTAAAGCTCAGGACTTCGACAGGAGGCTCACAACAGGC; test: fluorescence titration of dye into aptamer, sigmoidal fit; details: binding solution (composition not given); 50 nM aptamer; ex 434 nm, em 610 nm; apparent
[2] = test system: S51 (S51a) (DNA, aptamer) GGGAGACAAGAATAAACGCTCAAAGATAAAAAGGCTGTCTGAAAATTTTCGACAGGAGGCTCACAACAGGC; test: as above; details: binding solution (composition not given); 50 nM aptamer; ex 434 nm, em 610 nm; apparent
[3] = test system: S75 (S75a) (DNA, aptamer) GGGAGACAAGAATAAACGCTCAACTGGTATCTATATGAAGGTTGTAGCTTCGACAGGAGGCTCACAACAGGC; test: as above; details: binding solution (composition not given); 50 nM aptamer; ex 434 nm, em 610 nm; apparent
[4] = biological target: MUC1 variable tandem repeat (VTR) peptide (UniProt P15941); test: Ru(phen)2dppz fluorescence displacement; details: Ru dye; Ru displacement: 50 nM aptamer in binding solution (composition not given), excitation 434 nm, emission 610 nm; thermal assay: binding solution, 1 h ambient …
MUC1 variable tandem repeat (VTR) peptide, sequence (P15941 whole entry): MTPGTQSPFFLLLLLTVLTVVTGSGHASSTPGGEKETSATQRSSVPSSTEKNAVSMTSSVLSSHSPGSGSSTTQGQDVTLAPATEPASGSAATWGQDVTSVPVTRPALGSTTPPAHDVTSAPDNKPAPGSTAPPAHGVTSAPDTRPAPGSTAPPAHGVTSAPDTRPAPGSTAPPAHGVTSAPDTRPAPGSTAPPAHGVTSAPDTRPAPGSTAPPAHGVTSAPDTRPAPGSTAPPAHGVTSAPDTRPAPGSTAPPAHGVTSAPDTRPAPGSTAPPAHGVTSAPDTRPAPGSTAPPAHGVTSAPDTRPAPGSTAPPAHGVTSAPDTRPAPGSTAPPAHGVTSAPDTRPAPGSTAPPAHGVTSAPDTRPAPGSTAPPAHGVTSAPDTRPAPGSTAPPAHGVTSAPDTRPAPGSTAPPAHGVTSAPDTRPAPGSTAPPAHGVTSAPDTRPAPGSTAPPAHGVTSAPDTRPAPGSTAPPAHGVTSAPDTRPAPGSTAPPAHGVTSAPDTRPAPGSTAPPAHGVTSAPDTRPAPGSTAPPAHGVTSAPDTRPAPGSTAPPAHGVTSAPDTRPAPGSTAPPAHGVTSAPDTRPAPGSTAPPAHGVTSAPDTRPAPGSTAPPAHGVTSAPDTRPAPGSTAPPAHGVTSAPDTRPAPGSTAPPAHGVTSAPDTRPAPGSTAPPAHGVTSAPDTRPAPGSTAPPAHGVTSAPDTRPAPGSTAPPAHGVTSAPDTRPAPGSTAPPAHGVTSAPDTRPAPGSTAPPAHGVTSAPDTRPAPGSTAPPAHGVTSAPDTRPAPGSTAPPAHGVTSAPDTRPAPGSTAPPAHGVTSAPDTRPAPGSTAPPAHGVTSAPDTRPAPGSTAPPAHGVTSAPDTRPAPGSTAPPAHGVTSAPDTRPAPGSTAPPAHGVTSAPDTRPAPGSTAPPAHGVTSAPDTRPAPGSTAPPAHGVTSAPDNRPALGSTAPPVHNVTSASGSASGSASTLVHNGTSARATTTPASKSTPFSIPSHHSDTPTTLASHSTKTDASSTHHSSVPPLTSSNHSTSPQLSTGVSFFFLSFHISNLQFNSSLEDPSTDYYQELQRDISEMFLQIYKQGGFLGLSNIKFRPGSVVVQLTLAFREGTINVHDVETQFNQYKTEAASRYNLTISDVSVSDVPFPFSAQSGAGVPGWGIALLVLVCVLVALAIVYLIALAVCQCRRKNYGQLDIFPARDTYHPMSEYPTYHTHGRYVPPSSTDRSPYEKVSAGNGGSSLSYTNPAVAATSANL

lipase = test: Ru(phen)2dppz fluorescence displacement; details: no displacement up to 250 µM; aptamer given as variable region, S11b inferred; Ru displacement: 50 nM aptamer in binding solution (composition not given), excitation 434 nm, emission 610 nm; thermal assay: binding solution, 1 h ambient …
MUC1/Y 10mer peptide [5] = biological target: T1, MUC1/Y 10mer peptide (UniProt P15941-7); test: thermal denaturation (SYBR Green I); 1:1000 aptamer:peptide; Tm 20 and 45 to 26 °C; Ru displacement: 50 nM aptamer in binding solution (composition not given), excitation 434 nm, emission 610 nm; thermal assay: binding solution, 1 h ambient then SYBR Green I, 3-100 °C; cells: PBS, 4 °C, 1 h; details: hairpin (m-fold)
T1 chain: TEKNAFNSSL

MUC1/Y 20mer peptide [6] = biological target: T2, MUC1/Y 20mer peptide (UniProt P15941-7); test: thermal denaturation (SYBR Green I); 1:1000 aptamer:peptide; Tm 20 and 45 to 16 °C; Ru displacement: 50 nM aptamer in binding solution (composition not given), excitation 434 nm, emission 610 nm; thermal assay: binding solution, 1 h ambient then SYBR Green I, 3-100 °C; cells: PBS, 4 °C, 1 h; details: hairpin (m-fold)
T2 chain: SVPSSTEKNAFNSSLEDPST

MUC1/Y 20mer peptide [7] = biological target: T2, MUC1/Y 20mer peptide; test: Ru(phen)2dppz fluorescence displacement; 1.5 µM Ru dye; Kd only in Figure 2C; Ru displacement: 50 nM aptamer in binding solution (composition not given), excitation 434 nm, emission 610 nm; thermal assay: binding solution, 1 h ambient then SYBR Green I, 3-100 °C; cells: PBS, 4 °C, 1 h; details: predicted hairpin (m-fold)
MUC1/Y 20mer peptide [8] = biological target: T2, MUC1/Y 20mer peptide; test: thermal denaturation (SYBR Green I); 1:1000 aptamer:peptide; Tm 21 to 16 °C; Ru displacement: 50 nM aptamer in binding solution (composition not given), excitation 434 nm, emission 610 nm; thermal assay: binding solution, 1 h ambient then SYBR Green I, 3-100 °C; cells: PBS, 4 °C, 1 h
MUC1/Y 10mer peptide [9] = biological target: T1, MUC1/Y 10mer peptide; test: thermal denaturation (SYBR Green I); 1:1000 aptamer:peptide; Tm 21 to 7 and 20 °C; Ru displacement: 50 nM aptamer in binding solution (composition not given), excitation 434 nm, emission 610 nm; thermal assay: binding solution, 1 h ambient then SYBR Green I, 3-100 °C; cells: PBS, 4 °C, 1 h
MUC1/Y 20mer peptide [10] = biological target: T2, MUC1/Y 20mer peptide; test: thermal denaturation (SYBR Green I); 1:1000 aptamer:peptide; Tm 35 to 30 °C; Ru displacement: 50 nM aptamer in binding solution (composition not given), excitation 434 nm, emission 610 nm; thermal assay: binding solution, 1 h ambient then SYBR Green I, 3-100 °C; cells: PBS, 4 °C, 1 h; details: predicted hairpin (m-fold)
MUC1/Y 10mer peptide [11] = biological target: T1, MUC1/Y 10mer peptide; test: thermal denaturation (SYBR Green I); 1:1000 aptamer:peptide; Tm 35 to 43 °C; Ru displacement: 50 nM aptamer in binding solution (composition not given), excitation 434 nm, emission 610 nm; thermal assay: binding solution, 1 h ambient then SYBR Green I, 3-100 °C; cells: PBS, 4 °C, 1 h; details: predicted hairpin (m-fold)
MUC1/Y 20mer peptide [12] = biological target: T2, MUC1/Y 20mer peptide; test: Ru(phen)2dppz fluorescence displacement; 2 µM Ru dye; Kd only in Figure 2C; Ru displacement: 50 nM aptamer in binding solution (composition not given), excitation 434 nm, emission 610 nm; thermal assay: binding solution, 1 h ambient then SYBR Green I, 3-100 °C; cells: PBS, 4 °C, 1 h; details: predicted hairpin (m-fold)

Kd [1]: 350 nM
Kd [2]: 440 nM
Kd [3]: 240 nM
Molecule: [Ru+2].c1ccc2nc3c4cccnc4c4ncccc4c3nc2c1.c1cnc2c(c1)ccc1cccnc12.c1cnc2c(c1)ccc1cccnc12

Molecule: GGCAACATACTGTAAAGCTCAGGAC [S11b (S11 variable region)]
binding signal (fold more peptide than MUC1/Y peptide) [4]: > 100
Kd (lipase): > 250000 nM

B1: S11c (S11 hairpin region) (ssDNA)
DNA: ACTGTAAAGCTCAGGACTTCGACAGG
binding result (MUC1/Y 10mer peptide [5]): binds
binding result (MUC1/Y 20mer peptide [6]): binds

B2: S51a (S51 full length) (ssDNA)
DNA: GGGAGACAAGAATAAACGCTCAAAGATAAAAAGGCTGTCTGAAAATTTTCGACAGGAGGCTCACAACAGGC
binding result (MUC1/Y 20mer peptide [7]): binds

B3: S11b (S11 variable region) (ssDNA)
DNA: GGCAACATACTGTAAAGCTCAGGAC
binding result (MUC1/Y 20mer peptide [8]): binds
binding result (MUC1/Y 10mer peptide [9]): binds

B4: S11a (S11 full length) (ssDNA)
DNA: GGGAGACAAGAATAAACGCTCAAGGCAACATACTGTAAAGCTCAGGACTTCGACAGGAGGCTCACAACAGGC
binding result (MUC1/Y 20mer peptide [10]): binds
binding result (MUC1/Y 10mer peptide [11]): binds

B5: S75a (S75 full length) (ssDNA)
DNA: GGGAGACAAGAATAAACGCTCAACTGGTATCTATATGAAGGTTGTAGCTTCGACAGGAGGCTCACAACAGGC
binding result (MUC1/Y 20mer peptide [12]): binds
